Molecular target: GST-LT-Ag (HPD to AAA) mutant (JC virus (JCV)) (UniProt P03072)
Assay: pull-down

human heat shock protein Hsp70, sequence (P0DMV8 whole entry): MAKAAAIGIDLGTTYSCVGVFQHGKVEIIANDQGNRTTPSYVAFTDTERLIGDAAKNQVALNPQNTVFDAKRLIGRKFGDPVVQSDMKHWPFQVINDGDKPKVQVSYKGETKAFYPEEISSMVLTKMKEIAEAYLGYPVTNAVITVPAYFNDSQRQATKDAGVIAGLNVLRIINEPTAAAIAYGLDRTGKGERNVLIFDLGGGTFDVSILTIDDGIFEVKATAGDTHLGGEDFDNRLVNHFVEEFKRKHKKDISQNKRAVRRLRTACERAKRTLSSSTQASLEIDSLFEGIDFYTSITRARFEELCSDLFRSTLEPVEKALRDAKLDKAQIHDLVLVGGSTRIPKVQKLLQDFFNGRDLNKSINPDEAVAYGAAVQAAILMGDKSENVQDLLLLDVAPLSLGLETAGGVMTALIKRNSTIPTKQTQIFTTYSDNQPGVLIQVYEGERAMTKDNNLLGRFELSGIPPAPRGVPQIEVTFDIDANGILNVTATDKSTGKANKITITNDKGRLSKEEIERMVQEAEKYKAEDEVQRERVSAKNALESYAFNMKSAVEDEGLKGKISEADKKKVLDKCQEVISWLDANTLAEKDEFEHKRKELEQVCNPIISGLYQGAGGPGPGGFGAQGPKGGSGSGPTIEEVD

**Q.** For “human heat shock protein Hsp70 (from UniProt P0DMV8 1-641) (natural protein)”, which reduction of the interaction against WT is on record?
**A.** > 50%

From publication PMC3987903
